B1: Cavin-2 (other, human, UniProt O95810 2-425, looked up)
chain: GEDAAQAEKFQHPGSDMRQEKPSSPSPMPSSTPSPSLNLGNTEEAIRDNSQVNAVTVLTLLDKLVNMLDAVQENQHKMEQRQISLEGSVKGIQNDLTKLSKYQASTSNTVSKLLEKSRKVSAHTRAVKERMDRQCAQVKRLENNHAQLLRRNHFKVLIFQEENEIPASVFVKQPVSGAVEGKEELPDENKSLEETLHTVDLSSDDDLPHDEEALEDSAEEKVEESRAEKIKRSSLKKVDSLKKAFSRQNIEKKMNKLGTKIVSVERREKIKKSLTSNHQKISSGKSSPFKVSPLTFGRKKVREGESHAENETKSEDLPSSEQMPNDQEEESFAEGHSEASLASALVEGEIAEEAAEKATSRGSNSGMDSNIDLTIVEDEEEESVALEQAQKVRYEGSYALTSEEAERSDGDPVQPAVLQVHQTS
notes: whole, on cells; Detected with anti-Cavin-2 (Abcam) in IP-WB of cell extracts
B2: human Caveolin 1 (CAV1) (other, UniProt Q03135 2-178, looked up)
chain: SGGKYVDSEGHLYTVPIREQGNIYKPNNKAMADELSEKQVYDAHTKEIDLVNRDPKHLNDDVVKIDFEDVIAEPEGTHSFDGIWKASFTTFTVTKYWFYRLLSALFGIPMALIWGIYFAILSFLHIWAVVPCIKSFLIEIQCISRVYSIYVHTVCDPLFEAVGKIFSNVRINLQKEI
notes: whole, on cells; Endogenous protein in cell extracts, or full-length cDNA expressed from pCMV-puro in COS-7 cells for IP-WB; also called CAV1-WT; pCMVpuro-CAV1
B3: human Cavin-1 (other, UniProt Q6NZI2 1-390, looked up)
chain: MEDPTLYIVERPLPGYPDAEAPEPSSAGAQAAEEPSGAGSEELIKSDQVNGVLVLSLLDKIIGAVDQIQLTQAQLEERQAEMEGAVQSIQGELSKLGKAHATTSNTVSKLLEKVRKVSVNVKTVRGSLERQAGQIKKLEVNEAELLRRRNFKVMIYQDEVKLPAKLSISKSLKESEALPEKEGEELGEGERPEEDAAALELSSDEAVEVEEVIEESRAERIKRSGLRRVDDFKKAFSKEKMEKTKVRTRENLEKTRLKTKENLEKTRHTLEKRMNKLGTRLVPAERREKLKTSRDKLRKSFTPDHVVYARSKTAVYKVPPFTFHVKKIREGQVEVLKATEMVEVGADDDEGGAERGEAGDLRRGSSPDVHALLEITEESDAVLVDKSDSD
notes: whole, on cells; Endogenous protein in cell extracts, or full-length cDNA expressed from pCMV-puro in COS-7 cells for IP-WB; also called Cavin-1-WT; pCMVpuro-Cavin-1

Legend:
[1] = target: T1, human ROR1 (receptor tyrosine kinase-like orphan receptor 1) (human, UniProt Q01973 30-937); experiment: IP-WB of octyl glucoside cell extracts, NCI-H1975 and SK-LU-1
T1 construct: whole, on cells; also called ROR1-WT; endogenous ROR1

[2] = target: T1, human ROR1 (receptor tyrosine …); experiment: legend of FIGS. 4(3) and (4): IP-WB, NCI-H1975 and SK-LU-1
human Cavin-1 = target: B3; experiment: legend of FIG. 4(6): IP-WB

T1 sequence (Q01973 30-937): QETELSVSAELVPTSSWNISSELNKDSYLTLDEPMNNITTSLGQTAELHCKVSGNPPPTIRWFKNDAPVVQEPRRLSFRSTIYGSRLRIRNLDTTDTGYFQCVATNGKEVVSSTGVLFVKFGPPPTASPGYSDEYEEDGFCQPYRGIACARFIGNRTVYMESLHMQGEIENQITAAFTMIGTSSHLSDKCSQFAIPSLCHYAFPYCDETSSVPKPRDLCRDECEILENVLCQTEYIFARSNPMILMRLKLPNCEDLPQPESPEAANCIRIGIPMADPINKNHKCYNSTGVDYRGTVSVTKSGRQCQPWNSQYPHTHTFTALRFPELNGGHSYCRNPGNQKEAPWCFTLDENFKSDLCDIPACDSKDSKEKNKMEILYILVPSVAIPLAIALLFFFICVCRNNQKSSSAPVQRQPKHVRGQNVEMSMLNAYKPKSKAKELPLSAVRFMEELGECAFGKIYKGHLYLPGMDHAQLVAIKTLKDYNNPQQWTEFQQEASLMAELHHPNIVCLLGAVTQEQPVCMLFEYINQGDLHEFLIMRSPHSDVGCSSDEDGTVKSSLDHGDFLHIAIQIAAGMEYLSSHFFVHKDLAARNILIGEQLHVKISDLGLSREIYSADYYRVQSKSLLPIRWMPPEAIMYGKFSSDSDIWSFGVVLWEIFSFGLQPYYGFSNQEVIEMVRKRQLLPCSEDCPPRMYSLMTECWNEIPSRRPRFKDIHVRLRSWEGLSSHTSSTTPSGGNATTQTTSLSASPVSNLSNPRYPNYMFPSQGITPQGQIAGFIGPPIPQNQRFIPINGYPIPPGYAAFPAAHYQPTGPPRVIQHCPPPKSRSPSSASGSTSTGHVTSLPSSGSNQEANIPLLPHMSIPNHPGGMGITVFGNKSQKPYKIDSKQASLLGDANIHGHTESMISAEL

Row | Binder | binding result [1] | binding result [2] | binding result (human Cavin-1)
1 | B1 | no binding | – | –
2 | B2 | – | binds | binds
3 | B3 | binds | – | –

— EP3211087A1 (National University Corporation Nagoya University, dated 2017)
